Tests used:
[1] = biological target: T1, cytosolic (amino acids 97-421) domain of rat Syt-1 (Rattus norvegicus (Rat)., UniProt P21707); test: MST; NbSyt1 labelled with Alexa647 in MST buffer with 0.05 % Tween, incubated with dilutions of purified Syt-1(97-421); NT.115Pico Monolith; conditions: both partners purified
T1 construct: Synaptotagmin 1, rat, cytosolic domain, amino acids 97-421; also called rSyt-1(97-421); Syt-1(97-421); source: E. coli NEB-Express, purified (Ni beads, eluted on column with SUMO protease)

[2] = biological target: T2, desthio-biotinilated Syt-1(97-421) (Rattus norvegicus (Rat)., UniProt P21707, desthiobiotin (conjugated with desthiobiotin-N-hydroxysuccinimide ester)); test: ELISA; phage ELISA: desthio-biotinilated Syt-1(97-421) immobilised overnight at 4°C on MaxiSorp plate; 25 μl phage supernatant in 5% skim milk PBS-T, 1 h RT; detected with anti-M13-HRP; conditions: one partner purified
T2 construct: Synaptotagmin 1, rat, cytosolic domain, amino acids 97-421; The phage-display methods also print Syt-1(197-421) for this antigen; also called rSyt-1(97-421); immobilized cytosolic rSyt-1(97-421); source: E. coli NEB-Express, purified (Ni beads, SUMO protease elution), conjugated to desthiobiotin-NHS ester

[3] = biological target: T1, cytosolic (amino acids 97-421) domain …; test: far-Western, overlay or dot blot; dot blot: ~1 μg target protein spotted on nitrocellulose; NbA51 or NbA91 labeled with AbberiorStar635p at 5 nM in 5% milk PBS-Tween20, 1 h; conditions: both partners purified
[4] = biological target: T3, full-length rat Syt-1 fused to EGFP (Rattus norvegicus (Rat)., UniProt P21707); test: immunostaining of cells or tissue; COS-7 cells transfected with Syt1-EGFP, fixed with 4% PFA, permeabilised; 50 nM fluorescent nanobody, 2 h RT; conditions: one partner purified
T3 construct: Synaptotagmin 1, rat, full length; also called Syt1-EGFP; source: COS-7, transiently transfected, in fixed cells
T3 sequence (P21707 whole entry, the tested form may be a part): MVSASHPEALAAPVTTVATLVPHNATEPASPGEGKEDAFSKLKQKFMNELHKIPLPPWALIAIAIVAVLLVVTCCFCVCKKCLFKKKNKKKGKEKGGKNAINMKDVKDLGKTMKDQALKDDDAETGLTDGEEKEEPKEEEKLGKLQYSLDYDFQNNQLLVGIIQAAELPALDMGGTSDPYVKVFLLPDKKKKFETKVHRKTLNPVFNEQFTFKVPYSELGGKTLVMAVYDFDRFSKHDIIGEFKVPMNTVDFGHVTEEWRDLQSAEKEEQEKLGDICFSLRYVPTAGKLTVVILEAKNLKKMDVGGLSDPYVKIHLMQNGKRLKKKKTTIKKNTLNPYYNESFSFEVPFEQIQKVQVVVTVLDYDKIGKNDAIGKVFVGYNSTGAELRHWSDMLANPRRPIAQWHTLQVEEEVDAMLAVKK

T1 sequence (P21707 97-421): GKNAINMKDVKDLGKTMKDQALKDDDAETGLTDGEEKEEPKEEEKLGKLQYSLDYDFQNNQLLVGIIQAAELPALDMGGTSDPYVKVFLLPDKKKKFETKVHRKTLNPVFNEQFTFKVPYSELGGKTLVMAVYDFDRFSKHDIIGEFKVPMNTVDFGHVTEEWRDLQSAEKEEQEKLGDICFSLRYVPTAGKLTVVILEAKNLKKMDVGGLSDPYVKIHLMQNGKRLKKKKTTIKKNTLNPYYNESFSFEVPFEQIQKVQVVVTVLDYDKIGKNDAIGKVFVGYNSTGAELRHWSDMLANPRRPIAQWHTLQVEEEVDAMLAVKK
T2 sequence (P21707 97-421): as above

B1: NbSyt1 labelled with Alexa647 (VHH)
VHH: EVQLEESGGGLVRPGGSLRLSCAASGFPFSKYFMSWVRQAPGKGLEWVSTISASGNYETYTESVKGRFTIARDNAKNTLYLQMNSLKPEDTAVYYCAKGSWARDMTRGQGTQVTVSS
notes: also called Fluorescent NbSyt1; source: E. coli SHuffle Express (NEB), purified (Ni beads, SUMO protease elution), labelled with maleimide fluorophore
Kd [1]: 0.7 ± 0.3 nM

B2: clone A91 displayed on phage (VHH)
VHH: EVQLVESGGGLVQPGGSLRLSCVASGFPFSKYFMSWVRQAPGKGLEWVSTISSSGSTTTYTESVKGRFTISRDNAKNTLYLQMNNLKPEDTAVYYCEKGSWAPNNARGQGTQVS
notes: alpaca nanobody clone A91; One of the five clones positive in the phage ELISA; the fusion partner on the phage is surmised from the phagemid; also called NbA91
binding result [2]: binds

B3: NbA91 directly labeled with AbberiorStar635p (VHH)
VHH: B2 VHH
notes: alpaca nanobody clone A91; with one or two ectopic cysteines (at the C-terminus or at N- and C-termini); also called Nb-Ab635p
binding result [3]: binds | binding result [4]: binds
